Patent US20170212130A1
pKd: −log10 of the molar value.

Experiments:
[1] = target: GFP-His6 (eGFP) (Aequorea victoria) [GFP: P42212]; test: label under gel lane; legend: in vitro Kd for GFP by SPR; the asterisk is not explained on the sheet
[2] = target: S. cerevisiae Nup84-GFP (S. cerevisiae) (UniProt P52891); test: time course of Nup84-GFP isolation from yeast with dimer-conjugated magnetic beads, Coomassie band quantification

Substance	pKd [1]	relative yield of affinity isolation, percent of maximum, after 5 minutes [2] [%]	relative yield of affinity isolation, percent of maximum, after 10 minutes [2] [%]
GFP-Trap nanobody (ChromoTek GmbH) (VHH)	9.64		
LaG16-LaG2 fusion with a flexible glycine-rich linker (G4S)		80	90
